Results reported in patent US20020102268A1.

Target: uncleaved bovine spleen PARP (poly(ADP-ribose) polymerase) (UniProt P18493)
UniProt P18493, sequence (P18493 2-1016): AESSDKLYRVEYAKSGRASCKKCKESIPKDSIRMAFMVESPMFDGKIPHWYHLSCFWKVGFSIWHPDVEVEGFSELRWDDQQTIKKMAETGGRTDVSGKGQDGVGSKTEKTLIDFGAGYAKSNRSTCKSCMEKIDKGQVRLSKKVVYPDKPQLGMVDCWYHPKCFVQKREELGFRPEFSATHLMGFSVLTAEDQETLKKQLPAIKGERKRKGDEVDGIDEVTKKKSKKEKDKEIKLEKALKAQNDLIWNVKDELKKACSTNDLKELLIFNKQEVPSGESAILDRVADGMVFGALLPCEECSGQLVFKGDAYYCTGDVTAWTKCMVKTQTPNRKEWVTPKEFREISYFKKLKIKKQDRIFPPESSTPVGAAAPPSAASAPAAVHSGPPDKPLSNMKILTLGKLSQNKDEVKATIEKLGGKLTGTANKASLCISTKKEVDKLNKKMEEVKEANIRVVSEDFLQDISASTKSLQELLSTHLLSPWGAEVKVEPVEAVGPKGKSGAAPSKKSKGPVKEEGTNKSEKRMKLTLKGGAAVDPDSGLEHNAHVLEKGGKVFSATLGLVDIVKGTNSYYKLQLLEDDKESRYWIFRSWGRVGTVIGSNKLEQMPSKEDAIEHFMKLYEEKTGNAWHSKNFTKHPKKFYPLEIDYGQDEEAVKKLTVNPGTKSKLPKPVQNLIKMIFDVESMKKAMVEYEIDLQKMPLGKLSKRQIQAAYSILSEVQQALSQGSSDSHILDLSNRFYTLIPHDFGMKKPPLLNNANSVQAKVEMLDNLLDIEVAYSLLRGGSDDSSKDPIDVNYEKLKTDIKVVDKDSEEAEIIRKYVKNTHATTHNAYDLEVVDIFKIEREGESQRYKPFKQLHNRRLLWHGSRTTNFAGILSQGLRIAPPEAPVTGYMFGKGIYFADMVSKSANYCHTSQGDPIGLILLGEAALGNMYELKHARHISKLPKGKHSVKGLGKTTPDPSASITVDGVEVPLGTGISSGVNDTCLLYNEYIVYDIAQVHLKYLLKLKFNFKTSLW

## recombinant CPP32 (caspase 3)
  cleavage of PARP, seen on Western blot: two bands corresponding to uncleaved and cleaved PARP were visualized in the cleaved sample
